Values of other authors as cited in paper PMC3381941.
Read-outs that look alike come from different tables or passages of the source.

Columns and labels:
[1] = target: Mtf1 (Saccharomyces cerevisiae) (UniProt P14908); assay: protein-protein crosslinking
[2] = target: Mtf1 (Saccharomyces cerevisiae) (UniProt P14908); assay: protein-protein crosslinking; remark: listed apart in the source

Chain of UniProt P14908 (P14908 2-341): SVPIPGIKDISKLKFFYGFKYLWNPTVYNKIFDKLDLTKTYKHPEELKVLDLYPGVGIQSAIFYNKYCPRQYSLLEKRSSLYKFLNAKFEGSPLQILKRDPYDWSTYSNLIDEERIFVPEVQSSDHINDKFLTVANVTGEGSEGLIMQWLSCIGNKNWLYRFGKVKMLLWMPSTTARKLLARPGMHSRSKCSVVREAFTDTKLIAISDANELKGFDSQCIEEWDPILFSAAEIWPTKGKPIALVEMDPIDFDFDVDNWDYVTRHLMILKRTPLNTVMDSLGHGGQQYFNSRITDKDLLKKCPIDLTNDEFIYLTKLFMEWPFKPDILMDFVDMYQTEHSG

## Rpo41 (from UniProt P13433)
[1]
  Kd: 600 nM
[2]
  Kd: 400 nM
